Test results as given in publication PMC8068667 (Nature, 2021).

Target: RIFIN PF3D7_1373400 V2 domain, soluble recombinant (P. falciparum 3D7, UniProt C0H5N9)
Experiment: cryo-EM structure

B1: MDB1 Fab (LILRB1 D3D4-containing antibody Fab) (Fab, V domains shown)
VH: QITLKESGPTLVERTQTLTLTCTFSGFSLTTDGLGVGWIRQPPGKALEWLALIYYDDVRRYRPSLKSRLTITKDTSKNRVVLTVTDMDPVDAGTYFCVHASLFNLGSRNVYFRYWGQGTLVSVSS
VL: SYDLTQPPSVSVSPGQTARITCSGDSLARQFASWYQQKPGQSPVLLIYKNIERLSAIPERFSGSTSGTSVTLTISGVQAEDEADYFCQSADDSGSYSLFGTGTRVSVL
binding result: binds
